For the assay, the target named is SARS-CoV nucleocapsid protein C-terminal domain (residues 248–365) (SARS-CoV TW1 strain). In words: NMR structure.

Turning to “SARS-CoV nucleocapsid protein C-terminal domain (residues 248–365) (domain or fragment)”, the stoichiometry N is 2.

As a reminder, the stoichiometry N is a count of units in the complex or per binding partner.

The values above are taken from article PMC7094413.
